The values that follow come from PMC5217673, “The Shigella Virulence Factor IcsA Relieves N-WASP Autoinhibition by Displacing the Verprolin Homology/Cofilin/Acidic (VCA) Domain*” (The Journal of Biological Chemistry, 2016).

T1: IcsA passenger domain, IcsA(53–758), FLAG-tagged (Shigella flexneri, UniProt Q7BCK4 53-758)
T1 construct: IcsA (VirG) of Shigella flexneri, gene amplified from the virulence plasmid pWR100; Expressed as full-length IcsA from pETDuet-2 with IcsP; monomer by SEC-MALS; also called FLAG-IcsA; VirG; source: E. coli C43 (DE3), full-length IcsA co-expressed with IcsP; secreted passenger domain purified from medium (anti-FLAG M2 beads, SEC); not shown: FLAG, N-terminal, kept
T1 sequence: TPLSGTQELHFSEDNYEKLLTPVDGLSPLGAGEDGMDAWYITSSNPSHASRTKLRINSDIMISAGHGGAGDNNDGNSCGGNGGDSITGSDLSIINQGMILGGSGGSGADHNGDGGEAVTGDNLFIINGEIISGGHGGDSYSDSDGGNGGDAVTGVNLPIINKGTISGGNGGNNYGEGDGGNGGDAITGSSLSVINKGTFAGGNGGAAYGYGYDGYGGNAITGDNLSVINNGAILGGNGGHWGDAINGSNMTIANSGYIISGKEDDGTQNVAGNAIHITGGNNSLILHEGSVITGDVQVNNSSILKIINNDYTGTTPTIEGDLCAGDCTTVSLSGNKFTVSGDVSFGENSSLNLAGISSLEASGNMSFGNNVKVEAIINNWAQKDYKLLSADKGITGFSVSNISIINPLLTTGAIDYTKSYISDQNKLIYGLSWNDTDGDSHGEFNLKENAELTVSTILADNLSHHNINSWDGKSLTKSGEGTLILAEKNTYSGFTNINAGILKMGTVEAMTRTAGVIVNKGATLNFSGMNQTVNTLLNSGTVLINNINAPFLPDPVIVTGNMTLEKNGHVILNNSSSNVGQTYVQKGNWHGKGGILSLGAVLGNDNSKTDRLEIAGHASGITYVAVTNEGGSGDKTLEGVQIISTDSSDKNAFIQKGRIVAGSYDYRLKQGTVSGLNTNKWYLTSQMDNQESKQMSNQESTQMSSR

B1: GST-N-WASP WH1 + GBD (residues 30–274) (domain or fragment)
chain: LFTFLGKKCVTMSSAVVQLYAADRNCMWSKKCSGVACLVKDNPQRSYFLRIFDIKDGKLLWEQELYNNFVYNSPRGYFHTFAGDTCQVALNFANEEEAKKFRKAVTDLLGRRQRKSEKRRDPPNGPNLPMATVDIKNPEITTNRFYGPQVNNISHTKEKKKGKAKKKRLTKADIGTPSNFQHIGHVGWDPNTGFDLNNLDPELKNLFDMCGISEAQLKDRETSKVIYDFIEKTGGVEAVKNELRR
notes: N-WASP from the WH1 domain to the end of the GBD, residues 30-274; also called GST-WH1 + GBD; extended N-WASP construct; source: E. coli Rosetta(DE3), purified (glutathione-Sepharose, SEC)
B2: GST-N-WASP extended GBD (residues 156–274) (domain or fragment)
chain: NLPMATVDIKNPEITTNRFYGPQVNNISHTKEKKKGKAKKKRLTKADIGTPSNFQHIGHVGWDPNTGFDLNNLDPELKNLFDMCGISEAQLKDRETSKVIYDFIEKTGGVEAVKNELRR
notes: Cloned in pGEX-6P-1 or pGEX-4T-2; also called GST-GBD; GBD alone; source: E. coli Rosetta(DE3), purified (glutathione-Sepharose, SEC)
B3: Fluorescein-labelled N-WASP VCA peptide (residues 462–481) (peptide)
peptide: fluorescein-APTSGIVGALMEVMQKRSKA
notes: also called labeled peptide; source: synthetic peptide (Genscript)

Settings in all cases: both partners purified
The target of experiment [1] is T1, IcsA passenger domain, IcsA(53–758), …. In words: fluorescence polarisation; competition: preformed complex of GST-GBD or GST-WH1 + GBD (5 μM) and fluorescein-VCA peptide (0.1 nM), IcsA added at 0.01–16 μM, 25 °C; one-site equilibrium model.
Experiment [2] has as its target B1. In words: fluorescence polarisation; direct binding: fluorescein-VCA peptide 2 nM, GST-GBD or GST-WH1 + GBD 0.1–200 μM, 25 °C, TBS, 1 mM DTT; one-site equilibrium model. (In general: In fluorescence polarisation assays a small probe gives low polarisation when free and higher when bound to something large.)
The target in experiment [3] is B2. The experiment is described as above.

No end group written: not given here.

For orientation: Kd means the constant that tells how readily two partners part at equilibrium. As for B1, the Kd in experiment [1] came to 0.05 µM. Regarding B2, the Kd in experiment [1] was 0.32 µM.

For the molecule B3, the Kd was 52.4 µM in experiment [2] and 28.8 µM in experiment [3].
